Data as given in the RNAGym collection of RNA variant scans (doi:10.1073/pnas.2313332121).

B1: TPR t1 (parent)
chain: GACCAAUCUGCCCUCAGAGCUCGAGAACAUCUUCGGAUGCAGAGGAGGCAGGCUUCGGUGGCGCGAUAGCGCCAACGUCCUCAACCUCCAAUGCAUCCCACCACAUGAUGAUGCCUGAAGAGCCUUGGUUUUUUG

Variants of: B1
Test: polymerase ribozyme fitness, log enrichment relative to wild type (log ratio); higher = more active; in vitro selection for triplet polymerase activity
How it was run: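 Mutant libraries of both subunits of a heterodimeric triplet polymerase ribozyme were PCR-built, transcribed, and selected once in triplicate, with frozen incubation at −7 °C and capture of gel-excised extended constructs on streptavidin beads before RT-PCR. Illumina sequencing of input and output libraries was filtered to genotypes with ≥10 input reads and ≥1 read per output. Fitness is the logarithm of genotype enrichment over wild-type enrichment, using inverse-variance-weighted replicate averages. The logarithm is base 2.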

Variant | polymerase ribozyme fitness (log ratio)
C88A C123U G127U U131G | -0.279
G10A C49A | 0.131
A2G C4G C8G G47U U54C | -3.05
G36U G44A G71U | -3.19
C12U C102A C124U | 0.00391
A68C C124A | -5.4
C40G C115A G120C G122U | -1.41
A118G G122U | 0.311
C15U C56U G69U C102A | -5.73
C12G C70U | -0.468
U130A G135U | -0.655
G51U G58U G63A G117C | -6.73
G25A G93A | -6.22
C4A G93C A111U | -4.69
C13U C20U G44U G47U | -3.8
A6U A16C | -2.44
U38A C49G U55G | -2.77
A37U C114A C124U | -1.39
C56A | -0.243
A6G G39U | -0.397
A46U A105C A119G C124A | -1.39

Variant | polymerase ribozyme fitness (log ratio)
U92A U129G | -4.28
C72G U92A U126G U129A | -6.86
C12U C28U C49U C82A | -3.01
U14G G44C G71U U78A | -3.39
A83C G120A | 0.209
C15U C88G A103C C115G | -6.98
A18U C40A C70A A121C | -5.25
G63U C85U G110U | -4.39
U81A C86G | -1.48
G39A G51U C79U C101U | -5.14
U9G G71U A84G C89G U112G | -7.39
G48U A50U U78C A90U C123A | -2.26
C34U G48U | -4.63
C4G U112A | -0.309
C56G C73A G93C | -4.53
A46C C114U | -2.43
C4U C34A G71C A83G C98U U112A | -5.16
A5U A18U C94G A105G C123G | -6.51
C53G C79A G120C U133A | -4.39
G45U U132A | -1.91
C15A G44U | -2.85

Variant | polymerase ribozyme fitness (log ratio)
C12A C49U G69U U109A U116A C123G | -5.67
G107A C114G G128A | -7.24
G69A U81A C82U A119G G122U U125A U129C | -5.05
G36A U55G C115A | -1.03
C79A G117A | -2.46
U9A C15A A37G C56U G65A C79G C86G C115A | -7.1
G44U G65A | -6.04
A5U C49A | -2.06
A50G C80G A83G G120C | -6.33
G44A G69A C89A C124G | -3.8
U87A C123G | 1.66
A6U A16U A46C C56G | -2.72
G48A C64U | 0.0683
U9C G19A U32A C88U C123A | -5.37
G77A U112G | 0.316
G10C U38A G63C U130G | -2.42
C3A G10U G69U C72U C101U | -1.82
A50C C88A U130C U133A | -0.495
A90U U96C C115U | -1.64
C56U U81G C82A | -1.57
G25C C53U | -5.22

Variant | polymerase ribozyme fitness (log ratio)
C15U G58A | -1.84
A66G U87A C99U A118U | -4.99
C15G C73U A75G G107U U109A C124G | -5.07
C13U A46C | 0.0656
A2G C34A U55A C70G U112C | -5.23
C49G C70A | -2.2
U14C C15A A46C | -5.53
A27U A43G | -5.43
A26U C62A A83U G117A | -6.44
C56U C82U | -0.0659
A50U C123G U131G | 0.128
G19A C56U | -2.34
C53G C72A C82G | -0.867
C13U C70A A121G | 0.554
C11U C97A | -4.6
C40A G71U | -1.52
C15U C70G U78A C86G G127A | -5.32
U14A C22U A37U C79U A83C A84C | -5.43
C4U G69C | -2.05
C3G C124A | -0.505
G48A G61U C64U A84U | -3.63
